Source: the supplement of paper PMC9732359
± gives the uncertainty stated by the source.

Test: protein stability index of a GFP-peptide fusion (yeast GPS) (PSI 1-4); higher = more stable; sorted into four equal gates, so the index is relative within each strain
In short: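 Tiled 17-residue peptides from yeast proteins were fused downstream of GFP on a plasmid that also expresses Cherry, and the pooled library was carried in yeast. Mid-log cultures grown in leucine-free medium were sorted into four equal gates by GFP/Cherry fluorescence ratio. Plasmids from each gate were PCR-amplified and Illumina-sequenced, and reads were assigned to strains by barcodes. Each peptide's protein stability index is the sum, over gates, of the gate's read frequency multiplied by its gate number.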

Sequence	protein stability index (doa10∆)	protein stability index (pdr5∆)	protein stability index (san1∆)	protein stability index (ubr1∆)
GSKQILKTEAANVLDPS [BRR2]	3.11 ± 0.075	2.99 ± 0.076	3 ± 0.056	3.19 ± 0.067
GSNKAQISIIDIWSISK [YML031W/NDC1]	2.55 ± 0.056	2.76 ± 0.054	2.88 ± 0.054	2.97 ± 0.048
GSQIKFIVVPDLLKNAP [SMD3]	2.05 ± 0.052	2.13 ± 0.047	1.8 ± 0.055	1.8 ± 0.038
GSSALADNKEDVKKPFS [YLR335W/NUP2]	3.48 ± 0.099	3.16 ± 0.067	3.06 ± 0.06	3.21 ± 0.062
GSSGGVIRMVVLTAAGV [PRE3]	2.33 ± 0.086	1.74 ± 0.075	2.64 ± 0.12	1.74 ± 0.049
GSSSIIYYDSYIHLAYS [SSN2]	2.56 ± 0.11	2.61 ± 0.12	2.7 ± 0.068	2.79 ± 0.28
GSTLNVSQMVAVVGQQI [RPO31]	3.15 ± 0.14	2.94 ± 0.1	2.84 ± 0.16	2.82 ± 0.15
GSYGSLLRFNGVERLIP [PRE4]	2 ± 0.064	2.44 ± 0.069	2.04 ± 0.12	2.22 ± 0.12
GTAGGNTFGSSSLFNNS [YJL041W/NSP1]	3.2 ± 0.073	3.09 ± 0.06	3.12 ± 0.055	3.21 ± 0.059
GTGKTLLAKAVANQTSA [RPT2]	1.96 ± 0.085	1.95 ± 0.1	2.72 ± 0.16	1.89 ± 0.092
GTIDKLQLELTIEDIAV [RPO31]	2.41 ± 0.064	2.79 ± 0.057	2.3 ± 0.053	2.54 ± 0.046
GTSLTIQHIAAAMVPFI [CDC53]	2.75 ± 0.05	2.91 ± 0.046	2.6 ± 0.066	3.03 ± 0.043
GTSQNYGTATADDADIE [MED1]	3.22 ± 0.071	3.29 ± 0.073	3.08 ± 0.058	3.24 ± 0.061
GTVGNSHKTTKEDTVSW [RPL11A]	3.07 ± 0.095	3.1 ± 0.095	3.22 ± 0.069	3.12 ± 0.18
GVFDPASYAKYLIDHIK [RPL22A]	2.73 ± 0.25	–	3.35 ± 0.16	–
GVITVHNVFSKEQTIQL [RPN14]	2.57 ± 0.14	2.63 ± 0.19	2.95 ± 0.079	3.12 ± 0.14
GVLYQGNIQISEYNFLE [DIS3]	–	3.05 ± 0.16	2.6 ± 0.18	2.96 ± 0.28
GVYKRDNRTKSTTIKNI [SMC4]	1.62 ± 0.06	1.54 ± 0.062	1.33 ± 0.14	1.23 ± 0.075
GWFHSHPGYDCWLSNID [RRI1]	2.85 ± 0.075	3.05 ± 0.054	2.77 ± 0.074	2.81 ± 0.071
GWYHSGPKLRASDLKIN [RPN8]	1.57 ± 0.036	1.95 ± 0.035	1.59 ± 0.058	2.06 ± 0.035
GYENGMLAQWDLRSPEC [RPN14]	3.15 ± 0.29	3.6 ± 0.2	–	3.65 ± 0.16
GYGSNKKTKFLSPSGHK [RPL32]	2.4 ± 0.081	2.64 ± 0.09	2.62 ± 0.14	1.63 ± 0.092
GYYVGYKATATGPKQQE [SCL1]	3.1 ± 0.12	3.2 ± 0.088	3.02 ± 0.12	3.25 ± 0.14
HANSVVALTGLLIRSKT [YML031W/NDC1]	1.86 ± 0.04	2.18 ± 0.046	1.83 ± 0.052	2.35 ± 0.033
HDAPRGLFPFESYKPSV [SWI3]	3.31 ± 0.091	3.08 ± 0.11	3.15 ± 0.11	3.1 ± 0.079
HDELIDSIPRDVAYLLK [YGL172W/NUP49]	2.49 ± 0.12	2.82 ± 0.13	2.89 ± 0.055	3.05 ± 0.095

Sequence	protein stability index (doa10∆)	protein stability index (pdr5∆)	protein stability index (san1∆)	protein stability index (ubr1∆)
HDFLFNTIIRDGSKMLK [RPN14]	2.05 ± 0.11	2.55 ± 0.095	3.03 ± 0.15	1.38 ± 0.068
HDISKTETSNEDEDEDD [SNU114]	3.02 ± 0.058	3.03 ± 0.057	2.98 ± 0.039	3.08 ± 0.037
HDLLQIIHFHSHPEKRM [SSN3]	2.62 ± 0.053	2.71 ± 0.053	2.65 ± 0.046	2.79 ± 0.039
HEKIEDEDEDNDLDEDD [RPN4]	3.56 ± 0.2	3.44 ± 0.09	3.55 ± 0.086	3.45 ± 0.11
HELSRAELEELEEFEFK [SMD2]	3.26 ± 0.072	3.3 ± 0.071	3.42 ± 0.059	3.45 ± 0.055
HETLARSSEEINSDNQN [RPN3]	3.15 ± 0.26	–	–	3.16 ± 0.19
HFIQKLHTARKILVLTG [SIR2]	1.74 ± 0.14	2.36 ± 0.16	1.1 ± 0.15	1.66 ± 0.21
HGAFMDIIWLQRDLGLY [RRP6]	1.95 ± 0.047	1.49 ± 0.052	1.23 ± 0.069	1.46 ± 0.032
HGGSRYATKDGVAHLLN [QCR2]	3.13 ± 0.094	2.82 ± 0.055	3.3 ± 0.1	3.09 ± 0.072
HGKPTKGSSLASAASEA [SSN8]	1.95 ± 0.08	2.42 ± 0.068	2.19 ± 0.088	2.73 ± 0.032
HGMDFTTDKLRSMVRKW [RPS1A]	2.42 ± 0.1	2.55 ± 0.1	2.48 ± 0.19	2.9 ± 0.064
HGYFLQDKEKIDNLKDT [ITC1]	3.18 ± 0.072	3.41 ± 0.069	3.24 ± 0.057	3.42 ± 0.057
HHELIKVKHDSQPFIKF [SSN2]	3.14 ± 0.085	2.71 ± 0.099	2.86 ± 0.11	2.88 ± 0.06
HHIHHFEKKELQEKFLN [IRR1]	1.72 ± 0.035	1.61 ± 0.043	1.87 ± 0.068	1.56 ± 0.037
HHNDISNDSQSHFDYNT [YCG1]	1.89 ± 0.18	2.16 ± 0.17	2.49 ± 0.14	2.39 ± 0.16
HIAHTLPEKVNFRTMQQ [SSN2]	2.78 ± 0.079	2.92 ± 0.072	2.83 ± 0.083	2.75 ± 0.071
HINKKSQLDLFLRTMKL [GRR1]	1.94 ± 0.067	2.33 ± 0.076	1.21 ± 0.11	2.02 ± 0.1
HKQELQDLILDLKKKLN [SMC4]	2.55 ± 0.078	2.75 ± 0.16	2.31 ± 0.062	1.75 ± 0.058
HKQGSSYVAVLGMGKAV [POP7]	1.69 ± 0.077	1.71 ± 0.053	1.66 ± 0.082	1.86 ± 0.062
HKSPNLSLMLESPNYCN [SRB4]	2.28 ± 0.078	2.65 ± 0.1	2.64 ± 0.095	2.71 ± 0.06
HLGERAASVIGMLVALG [RPC82]	2.05 ± 0.23	1.71 ± 0.1	1.75 ± 0.21	2.04 ± 0.067
HLLVQLQKNDVYAFKAK [REC8]	3.15 ± 0.075	2.99 ± 0.064	2.73 ± 0.059	3.15 ± 0.074
HLMSWSKTGIIAYSDSQ [SIN4]	1.63 ± 0.11	1.59 ± 0.15	1.32 ± 0.12	2.2 ± 0.2
HLRSNILKDLIYRGVLN [SMC1]	1.74 ± 0.059	1.78 ± 0.085	1.8 ± 0.14	1.74 ± 0.056
HNKLNITSDALEGITTT [SMC3]	3.19 ± 0.16	3.09 ± 0.15	3.03 ± 0.092	3.1 ± 0.092
HNLHPQIGQVPLAPAPI [SNF5]	2.54 ± 0.062	2.23 ± 0.065	2.56 ± 0.059	2.76 ± 0.063
